Data taken from article PMC4393884 (Structure (London, England : 1993), 2014).

T1: truncated PR-B (233-933) (human, UniProt P06401 233-933)
T1 sequence (looked up): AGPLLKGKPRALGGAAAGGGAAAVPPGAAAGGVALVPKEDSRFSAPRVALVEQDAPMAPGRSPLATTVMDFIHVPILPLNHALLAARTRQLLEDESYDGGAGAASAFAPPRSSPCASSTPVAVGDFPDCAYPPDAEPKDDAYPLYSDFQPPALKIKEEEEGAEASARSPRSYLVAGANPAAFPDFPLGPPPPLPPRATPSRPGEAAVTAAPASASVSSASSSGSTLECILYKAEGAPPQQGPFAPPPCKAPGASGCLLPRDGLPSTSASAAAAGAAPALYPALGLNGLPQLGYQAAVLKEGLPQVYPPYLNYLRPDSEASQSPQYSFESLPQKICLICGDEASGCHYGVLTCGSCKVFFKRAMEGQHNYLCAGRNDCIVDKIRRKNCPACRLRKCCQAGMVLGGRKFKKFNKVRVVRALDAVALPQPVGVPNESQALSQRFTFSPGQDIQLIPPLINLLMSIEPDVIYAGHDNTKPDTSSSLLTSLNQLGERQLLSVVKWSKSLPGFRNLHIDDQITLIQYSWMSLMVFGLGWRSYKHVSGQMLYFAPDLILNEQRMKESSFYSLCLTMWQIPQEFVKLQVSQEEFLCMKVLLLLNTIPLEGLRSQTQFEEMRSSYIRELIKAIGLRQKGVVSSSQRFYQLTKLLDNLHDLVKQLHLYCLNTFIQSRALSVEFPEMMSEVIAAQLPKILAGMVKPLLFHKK

B1: full length progesterone receptor isoform B (PR-B) (receptor, human, UniProt P06401 1-933, looked up)
chain: MTELKAKGPRAPHVAGGPPSPEVGSPLLCRPAAGPFPGSQTSDTLPEVSAIPISLDGLLFPRPCQGQDPSDEKTQDQQSLSDVEGAYSRAEATRGAGGSSSSPPEKDSGLLDSVLDTLLAPSGPGQSQPSPPACEVTSSWCLFGPELPEDPPAAPATQRVLSPLMSRSGCKVGDSSGTAAAHKVLPRGLSPARQLLLPASESPHWSGAPVKPSPQAAAVEVEEEDGSESEESAGPLLKGKPRALGGAAAGGGAAAVPPGAAAGGVALVPKEDSRFSAPRVALVEQDAPMAPGRSPLATTVMDFIHVPILPLNHALLAARTRQLLEDESYDGGAGAASAFAPPRSSPCASSTPVAVGDFPDCAYPPDAEPKDDAYPLYSDFQPPALKIKEEEEGAEASARSPRSYLVAGANPAAFPDFPLGPPPPLPPRATPSRPGEAAVTAAPASASVSSASSSGSTLECILYKAEGAPPQQGPFAPPPCKAPGASGCLLPRDGLPSTSASAAAAGAAPALYPALGLNGLPQLGYQAAVLKEGLPQVYPPYLNYLRPDSEASQSPQYSFESLPQKICLICGDEASGCHYGVLTCGSCKVFFKRAMEGQHNYLCAGRNDCIVDKIRRKNCPACRLRKCCQAGMVLGGRKFKKFNKVRVVRALDAVALPQPVGVPNESQALSQRFTFSPGQDIQLIPPLINLLMSIEPDVIYAGHDNTKPDTSSSLLTSLNQLGERQLLSVVKWSKSLPGFRNLHIDDQITLIQYSWMSLMVFGLGWRSYKHVSGQMLYFAPDLILNEQRMKESSFYSLCLTMWQIPQEFVKLQVSQEEFLCMKVLLLLNTIPLEGLRSQTQFEEMRSSYIRELIKAIGLRQKGVVSSSQRFYQLTKLLDNLHDLVKQLHLYCLNTFIQSRALSVEFPEMMSEVIAAQLPKILAGMVKPLLFHKK
B2: full length progesterone receptor isoform A (PR-A) (receptor, human, UniProt P06401-2 1-769, looked up)
chain: MSRSGCKVGDSSGTAAAHKVLPRGLSPARQLLLPASESPHWSGAPVKPSPQAAAVEVEEEDGSESEESAGPLLKGKPRALGGAAAGGGAAAVPPGAAAGGVALVPKEDSRFSAPRVALVEQDAPMAPGRSPLATTVMDFIHVPILPLNHALLAARTRQLLEDESYDGGAGAASAFAPPRSSPCASSTPVAVGDFPDCAYPPDAEPKDDAYPLYSDFQPPALKIKEEEEGAEASARSPRSYLVAGANPAAFPDFPLGPPPPLPPRATPSRPGEAAVTAAPASASVSSASSSGSTLECILYKAEGAPPQQGPFAPPPCKAPGASGCLLPRDGLPSTSASAAAAGAAPALYPALGLNGLPQLGYQAAVLKEGLPQVYPPYLNYLRPDSEASQSPQYSFESLPQKICLICGDEASGCHYGVLTCGSCKVFFKRAMEGQHNYLCAGRNDCIVDKIRRKNCPACRLRKCCQAGMVLGGRKFKKFNKVRVVRALDAVALPQPVGVPNESQALSQRFTFSPGQDIQLIPPLINLLMSIEPDVIYAGHDNTKPDTSSSLLTSLNQLGERQLLSVVKWSKSLPGFRNLHIDDQITLIQYSWMSLMVFGLGWRSYKHVSGQMLYFAPDLILNEQRMKESSFYSLCLTMWQIPQEFVKLQVSQEEFLCMKVLLLLNTIPLEGLRSQTQFEEMRSSYIRELIKAIGLRQKGVVSSSQRFYQLTKLLDNLHDLVKQLHLYCLNTFIQSRALSVEFPEMMSEVIAAQLPKILAGMVKPLLFHKK
B3: C-terminal core DNA binding domain (aa 159-339) of human TATA-binding protein (TBPc) (domain or fragment, UniProt P20226 159-339, looked up)
chain: SGIVPQLQNIVSTVNLGCKLDLKTIALRARNAEYNPKRFAAVIMRIREPRTTALIFSSGKMVCTGAKSEEQSRLAARKYARVVQKLGFPAKFLDFKIQNMVGSCDVKFPIRLEGLVLTHQQFSSYEPELFPGLIYRMIKPRIVLLIFVSGKVVLTGAKVRAEIYEAFENIYPILKGFRKTT

How the values were obtained:
SEC = target: the molecule itself; assay: SEC
[1] = target: B2; assay: HDX-MS
[2] = target: B1; assay: HDX-MS
truncated PR-B (233-933) = target: T1, truncated PR-B (233-933); assay: HDX-MS

binding result [1] | binding result [2] | binding result (truncated PR-B (233-933)) | Binder | stoichiometry N (SEC)
 |  |  | B1 | 2
 |  |  | B2 | 2
binds | binds | binds | B3 | 
